Reference: paper PMC9700832
pKd: −log10 of the molar value.

Tests used:
[1] = molecular target: Staphylococcus aureus LexA (S. aureus); assay: SPR; LexA immobilised on a CM5 chip (1200 to 1300 RU); analytes in three-fold dilutions (6-1458 nM), 180 s at 30 uL/min, 25 °C; 20 mM HEPES pH 7.4, 150 mM NaCl, 3 mM EDTA, 0.1 mg/mL BSA, 0.005% P20; apparent KD from steady-state affinity fits, two titrations
[2] = molecular target: Staphylococcus aureus LexA (S. aureus); assay: SPR; […] (6-1458 nM), 180 s at 30 uL/min, 25 °C; 20 mM HEPES pH 7.4, 150 mM NaCl, 3 mM EDTA, 0.1 mg/mL BSA, 0.005% P20; […]
[3] = molecular target: Bacillus thuringiensis serovar israelensis LexA (B. thuringiensis serovar israelensis); assay: SPR; LexA immobilised on a CM5 chip (1200 to 1300 RU); analytes in three-fold dilutions (6-1458 nM), 180 s at 30 uL/min, 25 °C; 20 mM HEPES pH 7.4, 150 mM NaCl, 3 mM EDTA, 0.1 mg/mL BSA, 0.005% P20; apparent KD from steady-state affinity fits, two titrations

Substance	pKd [1]	other results
tectiviral gp7 homolog from the phage found in Bacillus thuringiensis serovar aizawai (natural protein)	6.52	–
tectiviral gp7 homolog of Bacillus anthracis phage AP50 (natural protein)	–	pKd [2]: 6.35
Staphylococcus aureus nucleoid-associated protein HU, purified recombinant (from UniProt Q5HFV0 1-90) (natural protein)	6.07	–
Bacillus thuringiensis uncharacterized protein M1QNS5 (natural protein)	–	pKd [3]: 6.44
tectiviral gp7 homolog of Bacillus mycoides VDm034 phage Lima (natural protein)	–	pKd [2]: 6.48
tectiviral gp7 homolog from the phage found in Bacillus cereus VD184 (natural protein)	6.42	–
gp7 of bacteriophage GIL01 (natural protein)	6.53	–
tectiviral gp7 homolog from the phage found in Bacillus cereus HuB13-1 (natural protein)	6.10	–
